Here are results for 2 variants from paper PMC10850085 (Nature Communications, 2024).

Sequences and labels used below:
B1: murine TpoR ectodomain, monomeric (TpoR_(1-479)) [modified: N-linked glycans at N117, N178, N349; tryptophan mannosylation (W465, W468); N-linked glycans at N117, N178, N349; tryptophan mannosylation (W465, W468)] [mouse] / peptide version … (parent complex)
chain 1: QDVFLLALGTEPLNCFSQTFEDLTCFWDEEEAAPSGTYQLLYAYRGEKPRACPLYSQSVPTFGTRYVCQFPAQDEVRLFFPLHLWVKNVSLNQTLIQRVLFVDSVGLPAPPRVIKARGGSQPGELQIHWEAPAPEISDFLRHELRYGPTDSSNATAPSVIQLLSTETCCPTLWMPNPVPVLDQPPCVHPTASQPHGPAPFLTVKGGSCLVSGLQAGKSYWLQLRSQPDGVSLRGSWGPWSFPVTVDLPGDAVTIGLQCFTLDLKMVTCQWQQQDRTSSQGFFRHSRTRCCPTDRDPTWEKCEEEEPRPGSQPALVSRCHFKSRNDSVIHILVEVTTAQGAVHSYLGSPFWIHQAVLLPTPSLHWREVSSGRLELEWQHQSSWAAQETCYQLRYTGEGREDWKVLEPSLGARGGTLELRPRARYSLQLRARLNGPTYQGPWSAWSPPARVSTGSE
chain 2: IEGPTLRQWLAARAGGIEGPTLRQWLAARA
B2: monomeric version of the romiplostim peptide [modified: N-terminal biotin moiety; N-terminal biotin moiety] / murine TpoR ectodomain, monomeric (TpoR_(1-479)) [modified: N-linked glycans at N117, N178, N349; tryptophan mannosylation (W465, … (parent complex)
chain 1: IEGPTLRQWLAARA
chain 2: B1 chain 1

The first assay covers variants of B1. Description: SPR; peak response of the last (highest concentration) injection over immobilised romiplostim peptide; concentration not stated for this panel; read off a plot. (In SPR one partner is held on a chip, and binding of the other changes the refractive index at the surface.)
Take chain 1 F80A: the response was roughly 220 RU.

The variants in a further assay derive from B2. Briefly: SPR; peak response of the last injection (100 nM TpoR, top concentration of a two-fold dilution series) over immobilised peptide; read off a plot.
Take chain 1 A12L: the response is roughly 36 RU.
